Assay results taken from patent US20170058005A1 (priority 2014, published 2017).
“Also recorded” adds a separate entry of the source.

How the values were obtained:
[1] = biological target: DRB1*0101 (DR1) (Homo sapiens, UniProt P01903+P01911, A100R/D57E/F55L/F60I/F76Y/I96L/L162R/M171V/P40L/Q125E/R42F/V115G/Y59C); type: binding
[2] = system: HLA-DR molecules; type: binding, human
[3] = biological target: DRB1*0301 (DR3) (Homo sapiens, UniProt P01903+P01911, A100K/A102G/A103R/A169T/F55Y/I96L/K41T/L162R/M171V/P40S/Q125H/Q178H/Q39Y/R42S/S66N/T106N/T262R/W38E/Y61H); type: binding
[4] = system: CD4^+ T cells of HLA class II transgenic mice; type: cell-based
[5] = biological target: DRB1*1301 (DR13) (Homo sapiens, UniProt P01903+P01911, A100E/A169T/K41T/L162R/M171V/P40S/Q125H/Q178H/Q39Y/Q99D/R42S/S66N/T262R/W38E/Y61H); type: binding
[6] = biological target: DRB1*0401 (DR4) (Homo sapiens, UniProt P01903+P01911, A100K/A169T/F76Y/I96L/K127E/L162R/M171V/N62H/P40V/Q125Y/R42H/S133A/S149N/S66Y/V115G/V209L/W38E); type: binding
[7] = system: human PBMCs; type: cell-based
[8] = biological target: DRB1*0701 (DR7) (Homo sapiens, UniProt P01903+P01911, A100R/A102G/A103Q/D57E/D86V/E43K/F76Y/K127E/L162R/M171V/P40G/Q125H/Q99D/R33Q/R42Y/R54Q/S133A/S66F/T210M/V115G/Y107V/Y59L/Y89S); type: binding
[9] = biological target: DRB1*1101 (DR11) (Homo sapiens, UniProt P01903+P01911, A100R/A169T/A87E/I96F/K41T/L162R/M171V/P40S/Q125H/Q178H/Q39Y/Q99D/R42S/S66Y/T262R/V115G/W38E); type: binding
[10] = biological target: DRB1*1501 (DR15) (Homo sapiens, UniProt P01903+P01911); type: binding

In the case of KIYLYENMNINNLTATLGAD, the “Relative binding affinity of peptide to HLA-DR molecules, DR1” value [1] is reported as 0.2, the “Strong relative binding affinity of peptide to HLA-DR molecules, DR1” value [1] is reported as “+ (key: +: Strong binding affinity was defined in this study as a relative activity <10)” and the “Binding across all HLA-DR alleles assayed” value [2] is reported as “strong binding affinity across all HLA-DR alleles assayed”. For the same sequence, the “Binding to HLA-DR1, DR4 and DR15” value [2] was “strong binders to all three HLA-DR alleles”, the “Relative binding affinity of peptide to HLA-DR molecules, DR3” value [3] was 1 and the “Strong relative binding affinity of peptide to HLA-DR molecules, DR3” value [3] was “+ (key: +: Strong binding affinity was defined in this study as a relative activity <10)”. The “CD4 T cell response in LF immunized HLA transgenics” value [4] was “recognised by all LF immunized HLA transgenics; also recorded: capable of eliciting a T cell response from all the HLA transgenics; also recorded: immunogenic in all three HLA-DR transgenic strains”, the “HLA-restriction based on CD4 T cell response class II HLA transgenics after priming with LF” value (shortened to “HLA-restriction based”) [4] was “DR1, DR4, DR15,; also recorded: DQ8, DQ6” and the Peptide-specific recall response [4] was “strongest peptide recall in both groups”. For the same sequence, the “Relative binding affinity of peptide to HLA-DR molecules, DR13” value (from here on “Relative binding affinity of peptide … DR13”) [5] was 17, the “Relative binding affinity of peptide to HLA-DR molecules, DR4” value [6] was 0.2 and the “Strong relative binding affinity of peptide to HLA-DR molecules, DR4” value [6] was “+ (key: +: Strong binding affinity was defined in this study as a relative activity <10)”. For the same sequence, the “T cell recognition in human cohorts” value [7] was “recognized by a high proportion of naturally infected donors, but not vaccinated individuals”, the “Relative binding affinity of peptide to HLA-DR molecules, DR7” value [8] was 5 and the “Strong relative binding affinity of peptide to HLA-DR molecules, DR7” value [8] was “+ (key: +: Strong binding affinity was defined in this study as a relative activity <10)”. The “Relative binding affinity of peptide to HLA-DR molecules, DR11” value [9] was 5, the “Strong relative binding affinity of peptide to HLA-DR molecules, DR11” value [9] was “+ (key: +: Strong binding affinity was defined in this study as a relative activity <10)” and the “Relative binding affinity of peptide to HLA-DR molecules, DR15” value [10] was 0.1. The “Strong relative binding affinity of peptide to HLA-DR molecules, DR15” value [10] was “+ (key: +: Strong binding affinity was defined in this study as a relative activity <10)”.
QHRDVLQLYAPEAFNYMDKF was tested, and the “Relative binding affinity of peptide to HLA-DR molecules, DR1” value [1] was 146, the “Binding across all HLA-DR alleles assayed” value [2] was “strong to moderate binding across all seven HLA-DR alleles” and the “Relative binding affinity of peptide to HLA-DR molecules, DR3” value [3] was 3. The “HLA-restriction based” value [4] was “DR1, DQ8”, the “Relative binding affinity of peptide … DR13” value [5] was 267 and the “Relative binding affinity of peptide to HLA-DR molecules, DR4” value [6] was 100. The “Relative binding affinity of peptide to HLA-DR molecules, DR7” value [8] was 83, the “Relative binding affinity of peptide to HLA-DR molecules, DR11” value [9] was 5 and the “Relative binding affinity of peptide to HLA-DR molecules, DR15” value [10] was 0.3.
With QNSNEVQEVFAKAFAYYIEP the “Relative binding affinity of peptide to HLA-DR molecules, DR1” value [1] was 0.1, the “Binding across all HLA-DR alleles assayed” value [2] was “strong to moderate binding across all seven HLA-DR alleles” and the “Relative binding affinity of peptide to HLA-DR molecules, DR3” value [3] was 173. For the same sequence, the “HLA-restriction based” value [4] was “DR1”, the “Relative binding affinity of peptide … DR13” value [5] was 327 and the “Relative binding affinity of peptide to HLA-DR molecules, DR4” value [6] was 137. For the same sequence, the “Relative binding affinity of peptide to HLA-DR molecules, DR7” value [8] was 0.4, the “Relative binding affinity of peptide to HLA-DR molecules, DR11” value [9] was 2 and the “Relative binding affinity of peptide to HLA-DR molecules, DR15” value [10] was 1.
In the case of QSDLIKKVTNYLVDGNGRFV, the “Relative binding affinity of peptide to HLA-DR molecules, DR1” value [1] is reported as 12, the “Binding across all HLA-DR alleles assayed” value [2] is reported as “strong to moderate binding across all seven HLA-DR alleles” and the “Relative binding affinity of peptide to HLA-DR molecules, DR3” value [3] is reported as 26. The “HLA-restriction based” value [4] was “DR15”, the “Relative binding affinity of peptide … DR13” value [5] was 38 and the “Relative binding affinity of peptide to HLA-DR molecules, DR4” value [6] was 15. The “Relative binding affinity of peptide to HLA-DR molecules, DR7” value [8] was 4, the “Relative binding affinity of peptide to HLA-DR molecules, DR11” value [9] was 139 and the “Relative binding affinity of peptide to HLA-DR molecules, DR15” value [10] was 0.2.
With SDVLEMYKAIGGKIYIVDGD the “Relative binding affinity of peptide to HLA-DR molecules, DR1” value [1] was 5, the “Binding across all HLA-DR alleles assayed” value [2] was “strong to moderate binding across all seven HLA-DR alleles” and the “Relative binding affinity of peptide to HLA-DR molecules, DR3” value [3] was greater than 76. For the same sequence, the “CD4 T cell response in LF immunized HLA transgenics” value [4] was “HLA-DQ8 specific response”, the “HLA-restriction based” value [4] was “DQ8” and the “Relative binding affinity of peptide … DR13” value [5] was 123. The “Relative binding affinity of peptide to HLA-DR molecules, DR4” value [6] was 305, the “Relative binding affinity of peptide to HLA-DR molecules, DR7” value [8] was 1 and the “Relative binding affinity of peptide to HLA-DR molecules, DR11” value [9] was 4. The “Relative binding affinity of peptide to HLA-DR molecules, DR15” value [10] was 2.
VENTEKALNVYYEIGKILSR was tested, and the “Relative binding affinity of peptide to HLA-DR molecules, DR1” value [1] was 1, the “Binding across all HLA-DR alleles assayed” value [2] was “strong to moderate binding across all seven HLA-DR alleles” and the “Relative binding affinity of peptide to HLA-DR molecules, DR3” value [3] was 418. For the same sequence, the “HLA-restriction based” value [4] was “DR1”, the “Relative binding affinity of peptide … DR13” value [5] was 71 and the “Relative binding affinity of peptide to HLA-DR molecules, DR4” value [6] was 81. For the same sequence, the “Relative binding affinity of peptide to HLA-DR molecules, DR7” value [8] was 36, the “Relative binding affinity of peptide to HLA-DR molecules, DR11” value [9] was 0.03 and the “Relative binding affinity of peptide to HLA-DR molecules, DR15” value [10] was 0.2.
